The nature of the data set: self-splicing fitness, log relative to wild type (ln ratio); higher = more splicing; Tetrahymena group I intron in knt gene, E. coli kanamycin selection, DiMSum; sequences stand for … in CUCUCU…GGAGGGAAAAGUUAUCAGGCAUGCACCUGGUAGCUAGUCUUUAAACCAAUAGAUUGCAUCGGUUUAAAAGGCAAGACCGUCAAAUUGCGGGAAAGGGGUCAACAGCCGUUCAGUACCAAGUCUCAGGGGAAACUUUGAGAUGGCCUUGCAAAGGGUAUGGUAAUAAGCUGACGGACAUGGUCCUAACCACGCAGCCAAGUCCUAAGUCAACAGAUCUUCUGUUGAUAUGGAUGCAGUUCACAGACUAAAUGUCGGUCGGGGAAGAUGUAUUCUUCUCAUAAGAUAUAGUCGGACCUCUCCUUAAUGGGAGCUAGCGGAUGAAGUGAUGCAACACUGGAGCCGCUGGGAACUAAUUUGUAUGCGAAAGUAUAUUGAUUAGUUUUGGAGUACUCGUGGUCG
Summed up:
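Library with all eight P1ex-region intron nucleotides randomised, intron inside the knt kanamycin-resistance gene on pET-22b(+), in E. coli BL21(DE3). Cells grew overnight at 37°C or 30°C on LB agar with or without 25 μg/mL kanamycin (plus 100 μg/mL carbenicillin, 50 μM IPTG, 0.2% rhamnose), in six replicate transformations. Pooled colonies were amplicon-sequenced on Illumina HiSeq 2500. DiMSum fitness is the error-weighted combination of wild-type-normalised replicate fold changes, kanamycin versus none.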

Experimental findings from the supplement of paper PMC7877785 are described below.

± gives the uncertainty stated by the source.

Turning to ACGUAGCAAUAUUACGCUCU, the “self-splicing fitness (ln)” value was -0.479 ± 0.12 (30 °C) and -0.414 ± 0.15 (37 °C).

GGCGAGCAAUAUUACGGUAC: the “self-splicing fitness (ln)” value is -2.08 ± 0.17 (30 °C) and -1.98 ± 0.19 (37 °C). For ACAUAGCAAUAUUACGGUGG, in that order: -3.62 ± 0.14 and -2.14 ± 0.12. For GACUAGCAAUAUUACGUUCU, in that order: -3.33 ± 0.26 and -0.968 ± 0.14. For AGGCAGCAAUAUUACGGAUU the same measures were -1.08 ± 0.077 and 0.356 ± 0.098.

As to CCUCAGCAAUAUUACGAUCU, the “self-splicing fitness (ln)” value is -3.75 ± 0.27 (30 °C) and -2.79 ± 0.23 (37 °C). As to AAAGAGCAAUAUUACGACCC, where the note is “30 °C”, the “self-splicing fitness (ln)” value was -2.42 ± 0.45.

Consider UCGUAGCAAUAUUACGAUAA, for which the “self-splicing fitness (ln)” value (30 °C) is -3.65 ± 0.26 and the “self-splicing fitness (ln)” value (37 °C) was -1.72 ± 0.2. As for UAGGAGCAAUAUUACGCGCC, the “self-splicing fitness (ln)” value (37 °C) is -1.03 ± 0.37.

As for GAUGAGCAAUAUUACGUUUU, the “self-splicing fitness (ln)” value is -3.82 ± 0.22 (30 °C) and -2.72 ± 0.2 (37 °C). For GCCUAGCAAUAUUACGCUAA, in that order: -1.28 ± 0.11 and 0.00419 ± 0.12. For the sequence UGCCAGCAAUAUUACGCGGC, where the note is “37 °C”, the “self-splicing fitness (ln)” value was -1.85 ± 0.35.

With GGGAAGCAAUAUUACGUGUC, the “self-splicing fitness (ln)” value (30 °C) was -3.63 ± 0.24 and the “self-splicing fitness (ln)” value (37 °C) is -2.28 ± 0.2. GACAAGCAAUAUUACGCUUC: the “self-splicing fitness (ln)” value by setting is: (30 °C) -3.75 ± 0.26; (37 °C) -2.25 ± 0.25.

GCUAAGCAAUAUUACGAUCA: the “self-splicing fitness (ln)” value was -1.29 ± 0.11 (30 °C) and -0.823 ± 0.093 (37 °C). In the case of GACCAGCAAUAUUACGGCGU, the “self-splicing fitness (ln)” value is, setting by setting: (30 °C) 0.046 ± 0.071; (37 °C) 0.319 ± 0.087.

As to CUGGAGCAAUAUUACGCGAG, the “self-splicing fitness (ln)” value reads like this: (30 °C) -3.24 ± 0.23; (37 °C) -2.47 ± 0.26.

For CAGCAGCAAUAUUACGGCUA, the “self-splicing fitness (ln)” value runs as follows: (30 °C) -0.235 ± 0.088; (37 °C) 0.311 ± 0.13. For CUGUAGCAAUAUUACGGGAG, in that order: -4.83 ± 0.29 and -1.67 ± 0.13. As for AAAUAGCAAUAUUACGCGGU, the “self-splicing fitness (ln)” value was -2.71 ± 0.18 (30 °C) and -1.93 ± 0.2 (37 °C). For the sequence UGAAAGCAAUAUUACGUCCG, the “self-splicing fitness (ln)” value by setting is: (30 °C) 0.111 ± 0.1; (37 °C) 0.472 ± 0.14. For the sequence AAGAAGCAAUAUUACGAGUC, the “self-splicing fitness (ln)” value reads like this: (30 °C) -2.53 ± 0.23; (37 °C) -1.51 ± 0.25. With GUAUAGCAAUAUUACGUCGA, the “self-splicing fitness (ln)” value reads like this: (30 °C) -2.2 ± 0.29; (37 °C) -1.03 ± 0.2. For AUCCAGCAAUAUUACGUAGA, the “self-splicing fitness (ln)” value runs as follows: (30 °C) -0.783 ± 0.073; (37 °C) -0.0552 ± 0.12. For AUCCAGCAAUAUUACGGACC the same measures were -1.71 ± 0.13 and 0.282 ± 0.13. For the sequence CUUGAGCAAUAUUACGGUCG, the “self-splicing fitness (ln)” value is -1.67 ± 0.15 (30 °C) and -2.3 ± 0.3 (37 °C). For GCGUAGCAAUAUUACGUUAC the same measures were -2.56 ± 0.23 and -2.37 ± 0.32. For GAUAAGCAAUAUUACGCCGA the same measures were -2.01 ± 0.18 and -1.14 ± 0.22. For AUGGAGCAAUAUUACGGUAA, the “self-splicing fitness (ln)” value (37 °C) is -1.08 ± 0.16.

As to AUGGAGCAAUAUUACGGUAU, the “self-splicing fitness (ln)” value by setting is: (30 °C) -3.49 ± 0.16; (37 °C) -1.32 ± 0.1. UCUUAGCAAUAUUACGUGAC: the “self-splicing fitness (ln)” value by setting is: (30 °C) -2.81 ± 0.18; (37 °C) -3.32 ± 0.4.

With GUGGAGCAAUAUUACGUACA, the “self-splicing fitness (ln)” value (30 °C) is -2.11 ± 0.33. As to CUCAAGCAAUAUUACGUGAG, the “self-splicing fitness (ln)” value runs as follows: (30 °C) -3.05 ± 0.11; (37 °C) -3.3 ± 0.16. For GAACAGCAAUAUUACGAACU the same measures were -0.795 ± 0.07 and 0.239 ± 0.09.

UGACAGCAAUAUUACGCAAA: the “self-splicing fitness (ln)” value was -2.27 ± 0.18 (30 °C) and -1.73 ± 0.2 (37 °C). For CGUCAGCAAUAUUACGGCAG, in that order: -0.866 ± 0.064 and -0.287 ± 0.077. CAUGAGCAAUAUUACGAAAA: the “self-splicing fitness (ln)” value is, setting by setting: (30 °C) -3.45 ± 0.34; (37 °C) -1.22 ± 0.2. For CCCCAGCAAUAUUACGAAGG, in that order: -4.06 ± 0.17 and -2.51 ± 0.15. Consider CAAAAGCAAUAUUACGCGGA, for which the “self-splicing fitness (ln)” value (30 °C) is -3.43 ± 0.25 and the “self-splicing fitness (ln)” value (37 °C) is -2.08 ± 0.17. With AGCGAGCAAUAUUACGCUAA, the “self-splicing fitness (ln)” value reads like this: (30 °C) -1.62 ± 0.25; (37 °C) -1.85 ± 0.3. As for AACAAGCAAUAUUACGCUCG, the “self-splicing fitness (ln)” value is -0.882 ± 0.11 (30 °C) and -0.282 ± 0.11 (37 °C). In the case of GAUUAGCAAUAUUACGACAA, the “self-splicing fitness (ln)” value (30 °C) is -0.938 ± 0.17 and the “self-splicing fitness (ln)” value (37 °C) is -0.154 ± 0.14. For AACCAGCAAUAUUACGCCGG the same measures were -3.39 ± 0.17 and -2.09 ± 0.17. For ACGCAGCAAUAUUACGGGAA, the “self-splicing fitness (ln)” value (30 °C) was -2.99 ± 0.14 and the “self-splicing fitness (ln)” value (37 °C) was -2 ± 0.12. For UUGAAGCAAUAUUACGCAAG, the “self-splicing fitness (ln)” value (30 °C) was -0.402 ± 0.099 and the “self-splicing fitness (ln)” value (37 °C) is 0.251 ± 0.12.

Regarding ACAGAGCAAUAUUACGACGC, the “self-splicing fitness (ln)” value is -1.19 ± 0.13 (30 °C) and -0.298 ± 0.14 (37 °C).

Consider GGCCAGCAAUAUUACGUAGU, for which the “self-splicing fitness (ln)” value is, setting by setting: (30 °C) -2.25 ± 0.12; (37 °C) -2.13 ± 0.12. Turning to CCCUAGCAAUAUUACGUGAU, the “self-splicing fitness (ln)” value by setting is: (30 °C) -2.33 ± 0.076; (37 °C) -2.27 ± 0.14. For CAACAGCAAUAUUACGUCGC, in that order: -2.75 ± 0.17 and -2.07 ± 0.18.

For CGUAAGCAAUAUUACGAACG, the “self-splicing fitness (ln)” value reads like this: (30 °C) -3.04 ± 0.18; (37 °C) -1.76 ± 0.22. With ACCAAGCAAUAUUACGGUAC, the “self-splicing fitness (ln)” value runs as follows: (30 °C) -3.83 ± 0.22; (37 °C) -1.16 ± 0.15. With AAAAAGCAAUAUUACGGAUC, the “self-splicing fitness (ln)” value is -0.895 ± 0.068 (30 °C) and -0.418 ± 0.092 (37 °C). For ACAAAGCAAUAUUACGGAAA the same measures were -2.26 ± 0.18 and -1.7 ± 0.21.

Regarding GGGGAGCAAUAUUACGCGAA, the “self-splicing fitness (ln)” value was -2.75 ± 0.4 (30 °C) and 0.457 ± 0.31 (37 °C).

Regarding GAAGAGCAAUAUUACGAAUC, the “self-splicing fitness (ln)” value reads like this: (30 °C) -3.48 ± 0.22; (37 °C) -1.91 ± 0.15. As to AACAAGCAAUAUUACGGAGC, the “self-splicing fitness (ln)” value (30 °C) is -4.22 ± 0.3 and the “self-splicing fitness (ln)” value (37 °C) is -3.65 ± 0.36.

For UACAAGCAAUAUUACGUUUA, the “self-splicing fitness (ln)” value (30 °C) was -1.33 ± 0.07 and the “self-splicing fitness (ln)” value (37 °C) was -0.605 ± 0.072. For GGACAGCAAUAUUACGCAAA, in that order: -1.19 ± 0.13 and -0.67 ± 0.12.

With UUCGAGCAAUAUUACGUGGA, the “self-splicing fitness (ln)” value runs as follows: (30 °C) -2.74 ± 0.22; (37 °C) -2.58 ± 0.2. For CUAAAGCAAUAUUACGAACU the same measures were -5.08 ± 0.38 and -2.04 ± 0.19. For UGCCAGCAAUAUUACGUUCC the same measures were -1.31 ± 0.31 and -2.25 ± 0.3.
